Patent publication US20250109177A1, “EVOLVED PROTEIN DEGRONS” (The Broad Institute, Inc., priority 2022, published 2025)

Columns and labels:
degron-tagged eGFP = assay: Flow-based degradation assay, Degron-eGFP-IRES-mCherry in HEK293T cells; type: cell-based, human; details: HEK293T, overnight PT-179 treatment
Procedure: A flow-based degradation assay was then performed using a stably transduced Degron-eGFP-IRES-mCherry construct in HEK 293T cells to determine the ability of the evolved degrons to […] (see FIG. 7). Concentration of PT-179 is shown on the x-axis. Degrons indicated in the key were fused to the N-terminus of eGFP allowing measurement of eGFP:mCherry ratios for assessing degradation.
To characterize the evolved degrons, stable HEK293T cell lines expressing degron-tagged eGFP were generated (FIG. 19A). […] The final variant, SD36, potently degraded GFP in response to PT-179 (DC50=14 nM).

[1] = test system: CRBN C-terminal domain (CTD); assay: CRBN-CTD MG-PACE circuit transcriptional activation (luminescence); type: cell-based, human; details: at 50 μM PT-179

degron-tagged eGFP, sequence (Q96SW2 24-442 limits assumed): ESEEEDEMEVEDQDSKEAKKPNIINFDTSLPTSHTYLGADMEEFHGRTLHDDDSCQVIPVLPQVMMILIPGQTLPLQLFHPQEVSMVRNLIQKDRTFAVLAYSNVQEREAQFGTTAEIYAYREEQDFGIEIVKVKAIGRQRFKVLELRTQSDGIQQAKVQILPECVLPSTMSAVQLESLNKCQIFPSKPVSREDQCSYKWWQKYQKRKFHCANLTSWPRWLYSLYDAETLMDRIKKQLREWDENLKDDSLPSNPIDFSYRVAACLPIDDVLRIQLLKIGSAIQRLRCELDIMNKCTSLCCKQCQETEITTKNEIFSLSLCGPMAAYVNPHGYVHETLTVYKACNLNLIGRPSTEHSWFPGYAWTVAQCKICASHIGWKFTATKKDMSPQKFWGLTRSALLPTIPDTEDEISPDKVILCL

B1: SD20: Evolved degron SEQ ID NO: 21: S10R E14D P16L E20K Q28E E42V P44T F45V R57K D58R A59C L60F *61VI (protein)
chain: FNVLMVHKRRHTGDRLLQCKICGFTCREKGNLLRHIKLHTGVKTVKCHLCNYACQRKRCFVI
GFP degradation in response to PT-179 (degron-tagged eGFP): did not trigger GFP degradation
luciferase expression, activation [1]: 24 fold
